{"source": "patent US20260248972A1", "about": "“DUAL RECEPTOR TARGETING RADIOLIGANDS AND USES THEREOF RELATED APPLICATIONS” (priority 2022, published 2026)", "assay": "in vivo", "conditions": "BALB/c nude, mouse, in vivo, iv, total radioactivity", "summary_of_the_method": "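Compounds labelled with ^177Lu in 0.5 M NaOAc pH 4.5 at 95° C for 15 min, then used directly or diluted in PBS with 3 mg/mL ascorbate. BALB/c nude mice bore subcutaneous AR42J flank xenografts (0.05-0.50 g). Organs excised at 4, 24 and 72 h post-injection and γ-counted for % ID and % ID/g.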"}
{"smiles": "C[C@@H](O)[C@H](NC(=O)[C@@H]1CSSC[C@H](NC(=O)[C@@H](Cc2ccccc2)NC(=O)CNC(=O)COCCOCCNC(=O)[C@H](CCCCNC(=O)c2cccc(NC(=O)N[C@@H]3CN(C4CCCCC4)c4ccccc4N(CC(=O)C(C)(C)C)C3=O)c2)NC(=O)CN2CCN(CC(=O)O)CCN(CC(=O)O)CCN(CC(=O)O)CC2)C(=O)N[C@@H](Cc2ccc(O)cc2)C(=O)N[C@H](Cc2c[nH]c3ccccc23)C(=O)N[C@@H](CCCCN)C(=O)N[C@@H]([C@@H](C)O)C(=O)N1)C(=O)O", "note": "[Compound I-53, DOTA-K(Z360)-OEG-G-f[CYwKTC]T-OH]", "values": [{"measurement": "tissue to tissue ratio at 24 h", "setting": "T/K Tumor/Kidney ratio", "value": 2.3}, {"measurement": "tissue to tissue ratio at 24 h", "setting": "T/L Tumor/Liver ratio", "value": 6.3}, {"measurement": "tissue to tissue ratio at 24 h", "setting": "T/P Tumor/Pancreas ratio", "value": 18}, {"measurement": "tissue to tissue ratio at 24 h", "setting": "T/Sp Tumor/Spleen ratio", "value": 52}, {"measurement": "tissue to tissue ratio at 24 h", "setting": "T/St Tumor/Stomach ratio", "value": 4.8}, {"measurement": "tissue uptake at 24 h", "setting": "uptake Kidney", "value": 7.15, "unit": "%ID/g"}, {"measurement": "tissue uptake at 24 h", "setting": "uptake Liver", "value": 2.57, "unit": "%ID/g"}, {"measurement": "tissue uptake at 24 h", "setting": "uptake Pancreas", "value": 0.91, "unit": "%ID/g"}, {"measurement": "tissue uptake at 24 h", "setting": "uptake Spleen", "value": 0.31, "unit": "%ID/g"}, {"measurement": "tissue uptake at 24 h", "setting": "uptake Stomach", "value": 3.36, "unit": "%ID/g"}, {"measurement": "tissue uptake at 24 h", "setting": "uptake Tumor", "value": 16.2, "unit": "%ID/g"}]}
{"smiles": "C[C@@H](O)[C@H](NC(=O)[C@@H]1CSSC[C@H](NC(=O)[C@@H](Cc2ccccc2)NC(=O)[C@H](CCCCNC(=O)c2cccc(NC(=O)N[C@@H]3CN(C4CCCCC4)c4ccccc4N(CC(=O)C(C)(C)C)C3=O)c2)NC(=O)COCCOCCNC(=O)COCCOCCNC(=O)CN2CCN(CC(=O)O)CCN(CC(=O)O)CCN(CC(=O)O)CC2)C(=O)N[C@@H](Cc2ccc(O)cc2)C(=O)N[C@H](Cc2c[nH]c3ccccc23)C(=O)N[C@@H](CCCCN)C(=O)N[C@@H]([C@@H](C)O)C(=O)N1)C(=O)O", "note": "[Compound I-41, DOTA-OEG-OEG-K(Z360)-f[CYwKTC]T-OH]", "values": [{"measurement": "tissue to tissue ratio at 24 h", "setting": "T/K Tumor/Kidney ratio", "value": 1.7}, {"measurement": "tissue to tissue ratio at 24 h", "setting": "T/L Tumor/Liver ratio", "value": 10}, {"measurement": "tissue to tissue ratio at 24 h", "setting": "T/P Tumor/Pancreas ratio", "value": 24}, {"measurement": "tissue to tissue ratio at 24 h", "setting": "T/Sp Tumor/Spleen ratio", "value": 55}, {"measurement": "tissue to tissue ratio at 24 h", "setting": "T/St Tumor/Stomach ratio", "value": 4}, {"measurement": "tissue uptake at 24 h", "setting": "uptake Kidney", "value": 9.7, "unit": "%ID/g"}, {"measurement": "tissue uptake at 24 h", "setting": "uptake Liver", "value": 1.5, "unit": "%ID/g"}, {"measurement": "tissue uptake at 24 h", "setting": "uptake Pancreas", "value": 0.7, "unit": "%ID/g"}, {"measurement": "tissue uptake at 24 h", "setting": "uptake Spleen", "value": 0.3, "unit": "%ID/g"}, {"measurement": "tissue uptake at 24 h", "setting": "uptake Stomach", "value": 4, "unit": "%ID/g"}, {"measurement": "tissue uptake at 24 h", "setting": "uptake Tumor", "value": 16.1, "unit": "%ID/g"}]}
{"smiles": "C[C@@H](O)[C@H](NC(=O)[C@@H]1CSSC[C@H](NC(=O)[C@@H](Cc2ccccc2)NC(=O)COCCOCCNC(=O)COCCOCCNC(=O)[C@H](CCCCNC(=O)c2cccc(NC(=O)N[C@@H]3CN(C4CCCCC4)c4ccccc4N(CC(=O)C(C)(C)C)C3=O)c2)NC(=O)CN2CCN(CC(=O)O)CCN(CC(=O)O)CCN(CC(=O)O)CC2)C(=O)N[C@@H](Cc2ccc(O)cc2)C(=O)N[C@H](Cc2c[nH]c3ccccc23)C(=O)N[C@@H](CCCCN)C(=O)N[C@@H]([C@@H](C)O)C(=O)N1)C(=O)O", "note": "[Compound 177Lu-I-39, metal not drawn]", "values": [{"measurement": "tissue uptake at 4 h", "setting": "% ID/g Adrenal gland", "value": 1.33, "unit": "%ID/g"}, {"measurement": "tissue uptake at 24 h", "setting": "% ID/g Adrenal gland", "value": 1.06, "unit": "%ID/g"}, {"measurement": "tissue uptake at 72 h", "setting": "% ID/g Adrenal gland", "value": 0.3, "unit": "%ID/g"}, {"measurement": "tissue uptake at 4 h", "setting": "% ID/g Blood", "value": 0.91, "unit": "%ID/g"}, {"measurement": "tissue uptake at 24 h", "setting": "% ID/g Blood", "value": 0.33, "unit": "%ID/g"}, {"measurement": "tissue uptake at 72 h", "setting": "% ID/g Blood", "value": 0.06, "unit": "%ID/g"}, {"measurement": "tissue uptake at 4 h", "setting": "% ID/g Fat", "value": 3.38, "unit": "%ID/g"}, {"measurement": "tissue uptake at 24 h", "setting": "% ID/g Fat", "value": 1.07, "unit": "%ID/g"}, {"measurement": "tissue uptake at 72 h", "setting": "% ID/g Fat", "value": 0.27, "unit": "%ID/g"}, {"measurement": "tissue uptake at 4 h", "setting": "% ID/g Femur", "value": 0.9, "unit": "%ID/g"}, {"measurement": "tissue uptake at 24 h", "setting": "% ID/g Femur", "value": 0.42, "unit": "%ID/g"}, {"measurement": "tissue uptake at 72 h", "setting": "% ID/g Femur", "value": 0.1, "unit": "%ID/g"}, {"measurement": "tissue uptake at 4 h", "setting": "% ID/g Heart", "value": 0.84, "unit": "%ID/g"}, {"measurement": "tissue uptake at 24 h", "setting": "% ID/g Heart", "value": 0.38, "unit": "%ID/g"}, {"measurement": "tissue uptake at 72 h", "setting": "% ID/g Heart", "value": 0.12, "unit": "%ID/g"}, {"measurement": "tissue uptake at 4 h", "setting": "% ID/g Intestine", "value": 1.8, "unit": "%ID/g"}, {"measurement": "tissue uptake at 24 h", "setting": "% ID/g Intestine", "value": 0.76, "unit": "%ID/g"}, {"measurement": "tissue uptake at 72 h", "setting": "% ID/g Intestine", "value": 0.24, "unit": "%ID/g"}, {"measurement": "tissue uptake at 4 h", "setting": "% ID/g Kidney", "value": 25.7, "unit": "%ID/g"}, {"measurement": "tissue uptake at 24 h", "setting": "% ID/g Kidney", "value": 12, "unit": "%ID/g"}, {"measurement": "tissue uptake at 72 h", "setting": "% ID/g Kidney", "value": 3.2, "unit": "%ID/g"}, {"measurement": "tissue uptake at 4 h", "setting": "% ID/g Liver", "value": 6.35, "unit": "%ID/g"}, {"measurement": "tissue uptake at 24 h", "setting": "% ID/g Liver", "value": 2.78, "unit": "%ID/g"}, {"measurement": "tissue uptake at 72 h", "setting": "% ID/g Liver", "value": 1.24, "unit": "%ID/g"}, {"measurement": "tissue uptake at 4 h", "setting": "% ID/g Lung", "value": 3.81, "unit": "%ID/g"}, {"measurement": "tissue uptake at 24 h", "setting": "% ID/g Lung", "value": 1.85, "unit": "%ID/g"}, {"measurement": "tissue uptake at 72 h", "setting": "% ID/g Lung", "value": 0.87, "unit": "%ID/g"}, {"measurement": "tissue uptake at 4 h", "setting": "% ID/g Muscle", "value": 0.3, "unit": "%ID/g"}, {"measurement": "tissue uptake at 24 h", "setting": "% ID/g Muscle", "value": 0.13, "unit": "%ID/g"}, {"measurement": "tissue uptake at 72 h", "setting": "% ID/g Muscle", "value": 0.02, "unit": "%ID/g"}, {"measurement": "tissue uptake at 4 h", "setting": "% ID/g Pancreas", "value": 3.71, "unit": "%ID/g"}, {"measurement": "tissue uptake at 24 h", "setting": "% ID/g Pancreas", "value": 0.94, "unit": "%ID/g"}, {"measurement": "tissue uptake at 72 h", "setting": "% ID/g Pancreas", "value": 0.15, "unit": "%ID/g"}, {"measurement": "tissue uptake at 4 h", "setting": "% ID/g Spleen", "value": 0.76, "unit": "%ID/g"}, {"measurement": "tissue uptake at 24 h", "setting": "% ID/g Spleen", "value": 0.31, "unit": "%ID/g"}, {"measurement": "tissue uptake at 72 h", "setting": "% ID/g Spleen", "value": 0.07, "unit": "%ID/g"}, {"measurement": "tissue uptake at 4 h", "setting": "% ID/g Stomach", "value": 6.28, "unit": "%ID/g"}, {"measurement": "tissue uptake at 24 h", "setting": "% ID/g Stomach", "value": 4.63, "unit": "%ID/g"}, {"measurement": "tissue uptake at 72 h", "setting": "% ID/g Stomach", "value": 1.26, "unit": "%ID/g"}, {"measurement": "tissue uptake at 4 h", "setting": "% ID/g Tumor", "value": 41.8, "unit": "%ID/g"}, {"measurement": "tissue uptake at 24 h", "setting": "% ID/g Tumor", "value": 27.5, "unit": "%ID/g"}, {"measurement": "tissue uptake at 72 h", "setting": "% ID/g Tumor", "value": 9.48, "unit": "%ID/g"}]}
